# Reference: US20040072162A1, “Hiv peptides and nucleic acids encoding them for diagnosis and control of hiv infection” (priority 2000, published 2004)
# B1: 8.116nat (peptide)
# peptide: ALGIIQAQ
# modifications: not checked
# B2: 8.11natM (peptide)
# peptide: GLADQLIHM
# modifications: not checked
# B3: 8.3nat (peptide)
# peptide: ALVEMGHHA
# modifications: not checked
# B4: 8.130nat (peptide)
# peptide: SGGDPEIV
# modifications: not checked
# B5: 8.47nat (peptide)
# peptide: RLAFHHMAR
# modifications: not checked
# B6: 8.121mod (peptide)
# peptide: WLFKLVPV
# modifications: not checked
# B7: 8.65nat (peptide)
# peptide: ATLEEMMTA
# modifications: not checked
# B8: 4.14 (peptide)
# peptide: SLVKHHMYV
# modifications: not checked
# B9: 8.10natT (peptide)
# peptide: KTKPPLPSV
# modifications: not checked
# B10: 8.64nat (peptide)
# peptide: ALGPAATLE
# modifications: not checked
# B11: 8.1nat (peptide)
# peptide: VVAAIIAIV
# modifications: not checked
# B12: 8.15natM (4.40) (peptide)
# peptide: GMGSPQILV
# modifications: not checked
# B13: 8.21nat (peptide)
# peptide: FLWMGYELH
# modifications: not checked
# B14: 8.123natG (peptide)
# peptide: TGNPPIPV
# modifications: not checked
# B15: 8.56nat (peptide)
# peptide: TLQEQIGWM
# modifications: not checked
# B16: 8.49nat (peptide)
# peptide: NTVATLYCV
# modifications: not checked
# B17: 8.33nat (peptide)
# peptide: LKTAVQMAV
# modifications: not checked
# B18: 8.135nat (peptide)
# peptide: FLGAAGST
# modifications: not checked
# B19: 8.93nat (peptide)
# peptide: YIKIFIMIV
# modifications: not checked
# B20: 8.121nat (peptide)
# peptide: WCFKLVPV
# modifications: not checked
# B21: 8.16nat (peptide)
# peptide: ILVESPAVL
# modifications: not checked
# B22: 8.12nat (peptide)
# peptide: ALAALITPK
# modifications: not checked
# B23: 8.88nat (peptide)
# peptide: AIEAQQHLL
# modifications: not checked
# B24: 8.45natC (peptide)
# peptide: LCFGWCFKL
# modifications: not checked
# B25: 8.14nat (peptide)
# peptide: LQLPPIERL
# modifications: not checked
# B26: 8.42nat (peptide)
# peptide: YLAWVPAHK
# modifications: not checked
# B27: 4.14 variant (peptide)
# peptide: SLVKHHMYI
# modifications: not checked
# B28: 8.115nat (peptide)
# peptide: LNFPISPI
# modifications: not checked
# B29: 8.54nat (peptide)
# peptide: RTLNAWVKV
# modifications: not checked
# B30: 8.75natV (peptide)
# peptide: NIWATHACV
# modifications: not checked
# Biological target: HLA-A2 MHC-I (HLA-A*0204, affinity purified from the EBV transformed cell line RML) (human)
row,Binder,Kd [nM]
1,B1,97
2,B2,135
3,B3,160
4,B4,950
5,B5,670
6,B6,183
7,B7,77
8,B8,21
9,B9,39
10,B10,830
11,B11,260
12,B12,120
13,B13,445
14,B14,700
15,B15,245
16,B16,170
17,B17,1330
18,B18,870
19,B19,24
20,B20,200
21,B21,13
22,B22,62
23,B23,850
24,B24,580
25,B25,7.3
26,B26,200
27,B27,123
28,B28,29
29,B29,170
30,B30,57
